The values that follow come from patent publication US20220267440A1 (ABSOS, published 2022).

Positions count from the first letter of the chain named.

To fix the notation:
B1: anti-CD47 AlivaMab antibody 107 (antibody, IgG1, V domains shown)
VH: QVQLQESGPGLMKPSETLSLTCTVSGGSISSYYWTWIRQPPGKGLEWIGYIYYSGSTNYNPSLKSRVTISVDTSKNQFSLKLSSVTAADTAVYYCARGRGALTAWGQGTLVTVSS
VL: DIQLTQSPSFLSASVGDRVTITCRASQDIGSYLAWCQQKPGKAPKLLIYAASTLQGGVPSRFSGSGSGTEFTLTISSLQPEDFATYYCQQLNSYPLTFGGGTKVEIK
notes: Chimeric AlivaMab Mouse mAb from hybridoma: human V, CH1 and upper hinge, mouse middle hinge, CH2 and CH3, human kappa light chain
B2: anti-CD47 AlivaMab antibody 91 (antibody, IgG1, V domains shown)
VH: B1 VH with M12V, S31T, T35S, S56T, G98K, G100D, L102F, T103D, A104I, L110M
VL: EIVLTQSPGTLSLSPGERATLSCRASQSVSSTYLAWSQQKPGQAPRLLIYGASSRATGIPDRFSGSGSGTDFTLTISRLEPEDFAVYYCQQYGSSRTFGQGTKVEIK
notes: Chimeric AlivaMab Mouse mAb from hybridoma: human V, CH1 and upper hinge, mouse middle hinge, CH2 and CH3, human kappa light chain; also called clone 91; mAb 91
B3: anti-CD47 AlivaMab antibody 102 (antibody, IgG1, V domains shown)
VH: B1 VH with M12V, S31N, T35S, G98K, G100D, A101T, L102F, T103D, A104I, L110M
VL: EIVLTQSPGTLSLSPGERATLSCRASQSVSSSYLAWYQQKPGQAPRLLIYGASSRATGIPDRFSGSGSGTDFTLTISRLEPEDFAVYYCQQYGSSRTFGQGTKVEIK
notes: as for B1
B4: anti-CD47 AlivaMab antibody 164 (antibody, IgG1, V domains shown)
VH: B1 VH with M12V, T35S, I51V, S56G, G98K, A101T, L102F, T103D, A104Y
VL: DIQMTQSPSSVSASVGDRVTITCRASQGISSWLAWYQQKPGKAPKLLIYAASSLQSGVPSRFSGSGSGTDFTLTISSLQPEDFATYFCQQANSFPLTFGGGTKVEIK
notes: Chimeric AlivaMab Mouse mAb from hybridoma: human V, CH1 and upper hinge, mouse middle hinge, CH2 and CH3, human kappa light chain; also called clone 164; mAb 164
B5: anti-CD47 AlivaMab antibody 161 (antibody, IgG1, V domains shown)
VH: QVQLQESGPGLVKPSETLSLTCTVSGGSISSYYWSWIRQPPGKGLEWIGYIYYSGSTNYNPSLKSRVTISVDTSKNQFSLKLSSVTAADTAVYYCARSRYFDLWGRGTLVTVSS
VL: DIQMTQSPSAMSTSVGDRVTITCRASQGISNFLAWFQQKPGKVPKRLIYAASSLQSGVPSRFSGSGSGTEFTLTISSLQPEDFATYYCLQHNSYPYTFGQGTKLEIK
notes: Chimeric AlivaMab Mouse mAb from hybridoma: human V, CH1 and upper hinge, mouse middle hinge, CH2 and CH3, human kappa light chain; also called clone 161; mAb 161
B6: anti-CD47 AlivaMab antibody 85 (antibody, IgG1, V domains shown)
VH: QVQLQESGPGLVKASETLSLTCTVSGGSISGYYWSWIRQPAGKGLEWIGRIYNSGSTNYNPSLKSRVTMSVDTSKNQFSLKLSSVTAADTAVYYCARQTYLDYWGQGTLVTVSS
VL: B5 VL with T13A, N31I, F32Y, Y96L, Q100G, L104V
notes: Chimeric AlivaMab Mouse mAb from hybridoma: human V, CH1 and upper hinge, mouse middle hinge, CH2 and CH3, human kappa light chain; also called clone 85; mAb 85
B7: anti-CD47 AlivaMab antibody 101 (antibody, IgG1, V domains shown)
VH: B1 VH with M12V, S31F, Y50F
VL: not shown
notes: as for B1
B8: anti-CD47 AlivaMab antibody 5 (antibody, IgG1, V domains shown)
VH: B1 VH with M12V, T35S, R99K, A101G, L102T, T103D, A104Y
VL: B4 VL with F87Y, L96R, G100Q
notes: Chimeric AlivaMab Mouse mAb from hybridoma: human V, CH1 and upper hinge, mouse middle hinge, CH2 and CH3, human kappa light chain; also called clone 5; mAb 5
B9: anti-CD47 AlivaMab antibody 10 (antibody, IgG2a, V domains shown)
VH: B1 VH with M12V, S30R, S31T, T35S, G98K, R99K, L102F, T103D, A104I, L110M
VL: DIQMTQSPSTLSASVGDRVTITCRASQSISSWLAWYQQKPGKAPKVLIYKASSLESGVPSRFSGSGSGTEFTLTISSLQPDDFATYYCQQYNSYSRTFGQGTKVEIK
notes: Chimeric AlivaMab Mouse mAb from hybridoma: human V, CH1 and upper hinge, mouse middle hinge, CH2 and CH3, human kappa light chain; also called clone 10; mAb 10
B10: anti-CD47 AlivaMab antibody 87 (antibody, IgG1, V domains shown)
VH: B1 VH with M12V, T35S, S83N, G98K, G100A, A101F, T103D, A104Y
VL: B4 VL with V11L, S31N, W32Y, Y36F, L46S, S56G, R61K, F87Y, A91Y, F94Y
notes: Chimeric AlivaMab Mouse mAb from hybridoma: human V, CH1 and upper hinge, mouse middle hinge, CH2 and CH3, human kappa light chain; also called clone 87; mAb 87
B11: anti-CD47 AlivaMab antibody 153 (antibody, IgG1, V domains shown)
VH: B1 VH with M12V, S30N, S31Y, T35S, G98K, G100S, A101S, L102Y, T103D, A104Y
VL: B5 VL with T13A, F32Y, K45R, Y96W, L104V
notes: Chimeric AlivaMab Mouse mAb from hybridoma: human V, CH1 and upper hinge, mouse middle hinge, CH2 and CH3, human kappa light chain; also called clone 153; mAb 153
B12: anti-CD47 AlivaMab antibody 90 (antibody, IgG1, V domains shown)
VH: B1 VH with M12V, S30N, S31N, T35S, N60H, S83T, Y93F, G100R
VL: B1 VL with L4V, D28G, G30S, C36Y, G56S, V104M
notes: Chimeric AlivaMab Mouse mAb from hybridoma: human V, CH1 and upper hinge, mouse middle hinge, CH2 and CH3, human kappa light chain; also called clone 90; mAb 90
B13: anti-CD47 AlivaMab antibody 144 (antibody, IgG1, V domains shown)
VH: B1 VH with M12V, T35S, S56T, G98K, A101E, L102F, T103D, A104Y
VL: B4 VL with V15E, S31R, F87Y
notes: Chimeric AlivaMab Mouse mAb from hybridoma: human V, CH1 and upper hinge, mouse middle hinge, CH2 and CH3, human kappa light chain; also called clone 144; mAb 144
B14: anti-CD47 AlivaMab antibody 106 (antibody, IgG1, V domains shown)
VH: QVQLQGSGPGLVKPSETLSLTCTVSGGSINNYYWSWIRQPPGKGLEWIGYIYYSGSTNSNPSLKSRVTISVDTSKNQFSLKLNSVTAADTAVYYCARKRDAFDIWGQGTMVTVSS
VL: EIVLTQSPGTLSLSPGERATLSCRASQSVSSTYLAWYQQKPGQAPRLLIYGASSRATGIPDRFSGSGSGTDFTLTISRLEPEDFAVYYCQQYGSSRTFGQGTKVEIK
notes: as for B1
B15: anti-CD47 AlivaMab antibody 143 (antibody, IgG1, V domains shown)
VH: QVQLQESGPGLVKPSETLSLTCTVSGGSINNYYWSWIRQPPGKGLEWIGYIYYSGSTNYNPSLRSRVTISVDTSKNQFSLKLSSVAAADTAVYYCARQKGMDVWGQGTTVTVSS
VL: B5 VL with T13A, F32Y, Y96P, L104V
notes: Chimeric AlivaMab Mouse mAb from hybridoma: human V, CH1 and upper hinge, mouse middle hinge, CH2 and CH3, human kappa light chain; also called clone 143; mAb 143
B16: anti-CD47 AlivaMab antibody 14 (antibody, IgG1, V domains shown)
VH: B5 VH with S98K, Y100G, F101L, L103I, R106Q, L109M
VL: not shown
notes: Chimeric AlivaMab Mouse mAb from hybridoma: human V, CH1 and upper hinge, mouse middle hinge, CH2 and CH3, human kappa light chain; also called clone 14; mAb 14

For one assay, the target named is T1, recombinant human CD47 (Novoprotein cat no. C321, lot no. 0329689) (human, UniProt Q08722 19-139).
T1 construct: Bought reagent
Briefly: SPR summary table, 25 C.
Description: (§1) Binding kinetics were measured at 25° C. using a BioRad ProteOn XPR36 optical biosensor equipped with GLM sensor chips and equilibrated with running buffer (HBS, 0.005% TWEEN-20, 0.1 mg/mL BSA, pH 7.4).
(§2) CD47 was tested in a three-fold dilution series starting at 100 nM.
Take B1: the Kd – broadly, a measure of binding affinity in units of concentration – is 0.16 nM; the koff (usually the first-order rate constant of dissociation) came out at 0.00093 s⁻¹; the kon (commonly the rate constant with which the complex forms) is 5.7e+06 M⁻¹ s⁻¹.
For B2 the same measures were 0.15 nM, 0.00111 s⁻¹ and 7.2e+06 M⁻¹ s⁻¹.
Turning to B3, the Kd came to 0.32 nM, the koff came to 0.00221 s⁻¹ and the kon amounted to 6.9e+06 M⁻¹ s⁻¹.

The next assay addresses T2, human CD47 extracellular domain with a histidine- (HIS-) tag (Sino Biological, China) (human, UniProt Q08722 19-139).
T2 construct: extracellular domain; also called huCD47; huCD47 protein (Sino Biological, China 10161-H08H); not shown: histidine tag
Briefly: competition ELISA on huCD47 after 1A.
On to B4, for which the “competition matrix cell (no name or unit printed)” value is 103.
Turning to B5, the “competition matrix cell (no name or unit printed)” value was determined as 106.
The same measure, in the same setting: as for B6, the figure is 98.

A further assay concerns the target T2, human CD47 extracellular domain with a …. Description: competition ELISA on huCD47 after 10A. In general terms: In an ELISA, binding on a coated surface is turned into a signal by an enzyme label.
Description: (§3) A competition ELISA was performed to establish competitive binding bins. […] After washing, wells were incubated with an AlivaMab monoclonal antibody representing one of seven unique competition bins. After 1 hour the wells were washed and incubated with individual clonal anti-huCD47 AlivaMab hybridoma supernatants. […] Individual AlivaMab Mouse antibodies that were unable to bind in the presence of a mouse antibody are considered to be in the same epitope bin as that particular mouse antibody.
Turning to B1, the “competition matrix cell (no name or unit printed)” value came to 100.
With B4, the “competition matrix cell (no name or unit printed)” value turned out to be 97.
For the molecule B7, the “competition matrix cell (no name or unit printed)” value was 92.
The same measure, in the same setting: as for B8, the figure is 93.

The target is the same in a further assay. Briefly: competition ELISA on huCD47 after 27A.
Description: as §3
With B1, the “competition matrix cell (no name or unit printed)” value is 106.
Same read-out and setting: as for B4, the figure is 108; as for B5, 105; as for B6, 98.

The target is the same in another assay. Briefly: competition ELISA on huCD47 after 35A.
Description: as §3
B4: the “competition matrix cell (no name or unit printed)” value came out at 117.
Still for that read-out and setting: in the case of B8 it was 97; in that of B5, 109.
B6: the “competition matrix cell (no name or unit printed)” value was found to be 104.

The target is the same in a further assay. Briefly: competition ELISA on huCD47 after 141A.
Description: as §3
For B4, the “competition matrix cell (no name or unit printed)” value was determined as 100.
For the molecule B5, the “competition matrix cell (no name or unit printed)” value amounted to 107.
On the same count and under the same terms, in the case of B6 it was 102.

The target is the same in another assay. Briefly: competition ELISA on huCD47 after 156A.
Description: as §3
With B4, the “competition matrix cell (no name or unit printed)” value turned out to be 120.
Turning to B5, the “competition matrix cell (no name or unit printed)” value amounted to 112.
On to B6, for which the “competition matrix cell (no name or unit printed)” value came out at 95.

A further assay has the same target. Description: competition ELISA on huCD47, row G1 Alone.
Description: as §3
As to B1, the “competition matrix cell (no name or unit printed)” value stood at 100.
For B4, the “competition matrix cell (no name or unit printed)” value came out at 100.
In the case of B7, the “competition matrix cell (no name or unit printed)” value is 100.
Turning to B5, the “competition matrix cell (no name or unit printed)” value is 100.
The same measure, in the same setting: as for B6, the figure is 100.

Another assay shares this target. Briefly: competition ELISA on huCD47 after 10A; cross-hatched cell.
Description: as §3
As to B1, the “competition matrix cell (no name or unit printed)” value amounted to 85.
On to B7, for which the “competition matrix cell (no name or unit printed)” value was found to be 61.
For the molecule B8, the “competition matrix cell (no name or unit printed)” value was 73.
Same read-out and setting: as for B5, the figure is 89.
The same measure, in the same setting: as for B6, the figure is 83.

The target in the next assay is T1, recombinant human CD47 (Novoprotein cat …). Briefly: SPR (ProteOn XPR36), mAb captured on anti-mouse Fc, CD47 as analyte, 25 C, 1:1 model.
Description: as §1, §2
For the molecule B1, the Kd is 0.163 nM, the koff was 0.00093 s⁻¹ and the kon stood at 5.7e+06 M⁻¹ s⁻¹.
As to B2, the Kd worked out at 0.154 nM, the koff is 0.00111 s⁻¹ and the kon is 7.2e+06 M⁻¹ s⁻¹.
On to B3, for which the Kd is 0.32 nM, the koff was determined as 0.00221 s⁻¹ and the kon was 6.9e+06 M⁻¹ s⁻¹.

The next assay has as its target T3, recombinant CD47-Fc (Sino Biologics) (human, UniProt Q08722 19-139).
T3 construct: Bought reagent; also called human CD47-Fc; not shown: Fc
Description: competition ELISA: HIS-tagged SIRP α binding to plate-bound CD47-Fc, antibody titrated.
For the molecule B1, the IC50 (commonly the point on the concentration scale where inhibition reaches its midpoint) turned out to be 2.7 nM.
Take B4: the IC50 is 4.8 nM.
For the molecule B9, the IC50 was 4.7 nM.
For B7, the IC50 was found to be 15 nM.
Consider B10, for which the IC50 came to 3 nM.
Still for that read-out and setting: as for B11, the figure is 27.9 nM; as for B2, 2.1 nM.
Take B12: the IC50 is 53.6 nM.
Turning to B13, the IC50 was found to be 10 nM.
Turning to B3, the IC50 was determined as 2.3 nM.
On the same count and under the same terms, in the case of B8 it was 3.5 nM.
In the case of B14, the IC50 was found to be 2.9 nM.
On the same count and under the same terms, as for B5, the figure is 3 nM; as for B6, 4.9 nM; as for B15, 96 nM.
On the same count and under the same terms, as for B16, the figure is 3.5 nM.
